# B1: Peroxisome proliferator-activated receptor alpha (Homo sapiens), Q07869 (parent)
# chain: MVDTESPLCPLSPLEAGDLESPLSEEFLQEMGNIQEISQSIGEDSSGSFGFTEYQYLGSCPGSDGSVITDTLSPASSPSSVTYPVVPGSVDESPSGALNIECRICGDKASGYHYGVHACEGCKGFFRRTIRLKLVYDKCDRSCKIQKKNRNKCQYCRFHKCLSVGMSHNAIRFGRMPRSEKAKLKAEILTCEHDIEDSETADLKSLAKRIYEAYLKNFNMNKVKARVILSGKASNNPPFVIHDMETLCMAEKTLVAKLVANGIQNKEAEVRIFHCCQCTSVETVTELTEFAKAIPGFANLDLNDQVTLLKYGVYEAIFAMLSSVMNKDGMLVAYGNGFITREFLKSLRKPFCDIMEPKFDFAMKFNALELDDSDISLFVAAIICCGDRPGLLNVGHIEKMQEGIVHVLRLHLQSNHPDDIFLFPKLLQKMADLRQLVTEHAQLVQIIKKTESDAALHPLLQEIYRDMY
# Variants of: B1
# Conditions: with ncor1_human NCOR1, O75376
# Chain of ncor1_human NCOR1, O75376 (O75376 whole entry): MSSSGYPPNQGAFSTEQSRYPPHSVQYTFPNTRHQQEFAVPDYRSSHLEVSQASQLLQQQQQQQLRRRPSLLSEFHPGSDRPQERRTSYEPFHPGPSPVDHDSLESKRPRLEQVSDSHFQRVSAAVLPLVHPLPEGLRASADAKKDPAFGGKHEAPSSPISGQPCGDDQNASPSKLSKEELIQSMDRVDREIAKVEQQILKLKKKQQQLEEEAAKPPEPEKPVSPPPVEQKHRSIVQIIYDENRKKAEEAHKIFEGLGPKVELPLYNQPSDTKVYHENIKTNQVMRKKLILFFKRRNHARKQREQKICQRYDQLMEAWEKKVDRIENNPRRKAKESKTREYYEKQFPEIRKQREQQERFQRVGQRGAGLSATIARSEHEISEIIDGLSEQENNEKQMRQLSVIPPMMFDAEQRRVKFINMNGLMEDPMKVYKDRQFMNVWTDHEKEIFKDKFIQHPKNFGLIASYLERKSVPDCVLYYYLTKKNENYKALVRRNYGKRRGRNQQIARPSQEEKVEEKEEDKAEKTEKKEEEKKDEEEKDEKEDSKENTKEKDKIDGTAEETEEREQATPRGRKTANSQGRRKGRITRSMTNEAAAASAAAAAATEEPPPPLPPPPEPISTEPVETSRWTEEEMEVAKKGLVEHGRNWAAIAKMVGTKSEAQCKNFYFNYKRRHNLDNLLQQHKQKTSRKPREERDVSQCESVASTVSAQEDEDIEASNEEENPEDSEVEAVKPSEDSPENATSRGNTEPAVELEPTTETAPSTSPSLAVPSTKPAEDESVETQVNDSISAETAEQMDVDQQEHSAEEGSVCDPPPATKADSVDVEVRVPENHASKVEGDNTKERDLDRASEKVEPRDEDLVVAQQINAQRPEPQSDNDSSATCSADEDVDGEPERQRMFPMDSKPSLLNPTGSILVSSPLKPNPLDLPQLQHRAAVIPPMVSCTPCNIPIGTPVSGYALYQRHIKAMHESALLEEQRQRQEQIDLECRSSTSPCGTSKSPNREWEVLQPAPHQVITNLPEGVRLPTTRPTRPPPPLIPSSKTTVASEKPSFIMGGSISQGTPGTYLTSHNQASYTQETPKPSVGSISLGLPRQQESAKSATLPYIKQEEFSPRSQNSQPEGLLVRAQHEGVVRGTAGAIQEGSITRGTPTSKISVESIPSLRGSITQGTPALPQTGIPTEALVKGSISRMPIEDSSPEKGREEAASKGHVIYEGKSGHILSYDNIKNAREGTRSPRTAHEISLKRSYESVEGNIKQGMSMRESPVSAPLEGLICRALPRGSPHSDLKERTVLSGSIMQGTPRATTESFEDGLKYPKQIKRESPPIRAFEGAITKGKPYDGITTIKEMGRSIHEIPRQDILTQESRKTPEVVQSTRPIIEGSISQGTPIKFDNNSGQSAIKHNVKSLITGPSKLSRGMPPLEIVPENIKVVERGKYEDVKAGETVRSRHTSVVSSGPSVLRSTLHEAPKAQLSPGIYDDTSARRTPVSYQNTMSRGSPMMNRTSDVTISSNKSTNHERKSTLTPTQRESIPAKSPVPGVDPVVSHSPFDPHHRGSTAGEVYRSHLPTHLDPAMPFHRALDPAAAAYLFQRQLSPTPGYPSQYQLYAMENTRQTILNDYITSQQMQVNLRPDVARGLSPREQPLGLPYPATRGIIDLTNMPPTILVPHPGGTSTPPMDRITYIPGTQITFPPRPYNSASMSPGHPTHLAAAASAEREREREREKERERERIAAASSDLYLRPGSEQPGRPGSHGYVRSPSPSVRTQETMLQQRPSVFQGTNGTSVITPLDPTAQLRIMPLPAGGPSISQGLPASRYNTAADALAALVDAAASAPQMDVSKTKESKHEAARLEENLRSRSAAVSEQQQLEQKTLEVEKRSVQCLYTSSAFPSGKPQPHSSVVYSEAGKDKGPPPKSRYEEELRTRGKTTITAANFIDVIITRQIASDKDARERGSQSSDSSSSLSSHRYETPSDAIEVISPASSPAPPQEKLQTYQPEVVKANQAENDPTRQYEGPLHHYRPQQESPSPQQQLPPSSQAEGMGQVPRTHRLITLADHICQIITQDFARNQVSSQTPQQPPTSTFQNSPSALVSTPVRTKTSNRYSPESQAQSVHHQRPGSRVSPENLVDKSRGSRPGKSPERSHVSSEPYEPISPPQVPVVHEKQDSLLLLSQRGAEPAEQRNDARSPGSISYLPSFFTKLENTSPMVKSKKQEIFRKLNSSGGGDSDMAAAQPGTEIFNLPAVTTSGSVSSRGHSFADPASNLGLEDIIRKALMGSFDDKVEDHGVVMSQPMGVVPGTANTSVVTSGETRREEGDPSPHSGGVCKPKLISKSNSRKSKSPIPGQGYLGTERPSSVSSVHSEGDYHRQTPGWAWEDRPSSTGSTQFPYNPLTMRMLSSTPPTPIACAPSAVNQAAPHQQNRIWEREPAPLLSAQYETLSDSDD
row,effect of a mutation on the interaction,Variant
1,decreasing interaction,MVDTESPLCPLSPLEAGDLESPLSEEFLQEMGNIQEISQSIGEDSSGSFGFTEYQYLGSCPGSDGSVITDTLSPASSPSSVTYPVVPGSVDESPSGALNIECRICGDKASGYHYGVHACEGCKGFFRRTIRLKLVYDKCDRSCKIQKKNRNKCQYCRFHKCLSVGMSHNAIRFGRMPRSEKAKLRAEILTCEHDIEDSETADLKSLAKRIYEAYLKNFNMNKVKARVILSGKASNNPPFVIHDMETLCMAEKTLVAKLVANGIQNKEAEVRIFHCCQCTSVETVTELTEFAKAIPGFANLDLNDQVTLLKYGVYEAIFAMLSSVMNKDGMLVAYGNGFITREFLKSLRKPFCDIMEPKFDFAMKFNALELDDSDISLFVAAIICCGDRPGLLNVGHIEKMQEGIVHVLRLHLQSNHPDDIFLFPKLLQKMADLRQLVTEHAQLVQIIKKTESDAALHPLLQEIYRDMY [K185R]
